Reference: paper PMC5121451, “NADP-Dependent Aldehyde Dehydrogenase from Archaeon Pyrobaculum sp.1860: Structural and Functional Features” (Archaea, 2016)
Blank lines part the entries; values can stand above or below the molecule they belong to.

Tests used:
[1] = biological target: NADP-dependent aldehyde dehydrogenase AlDHPyr1147 from archaeon Pyrobaculum sp.1860 (Pyrobaculum sp.1860); assay: crystal structure; apo form, three binary complexes with coenzyme (Holo-1, Holo-2, Holo-3) and ternary complex with NADP+ and isobutyraldehyde; space group P2(1)2(1)2, eight subunits (two tetramers) per asymmetric unit
[2] = biological target: NADP-dependent aldehyde dehydrogenase AlDHPyr1147 from archaeon Pyrobaculum sp.1860 (Pyrobaculum sp.1860); assay: SEC; gel filtration of AlDHPyr1147 as isolated (with bound coenzyme); analytical column 10/300 GL, 50 mM sodium pyrophosphate pH 8.8, 100 mM NaCl, 22°C
[3] = biological target: NADP-dependent aldehyde dehydrogenase AlDHPyr1147 from archaeon Pyrobaculum sp.1860 (Pyrobaculum sp.1860); assay: SEC; gel filtration of the apo form (coenzyme removed by heating at 85°C for 10-15 min), at room temperature
AlDHPyr1147 [4] = biological target: T1, AlDHPyr1147 (Pyrobaculum ferrireducens, UniProt G7VCG0); assay: spectrophotometric NADPH formation at […] nm; assay type: biochemical; conditions: 0.084 μM enzyme, 0.3 mM NADP+, 9 mM isobutyraldehyde, pH 8.8, 60 °C
T1 construct: gene P186_1147; homotetramer
T1 sequence (G7VCG0 1-491): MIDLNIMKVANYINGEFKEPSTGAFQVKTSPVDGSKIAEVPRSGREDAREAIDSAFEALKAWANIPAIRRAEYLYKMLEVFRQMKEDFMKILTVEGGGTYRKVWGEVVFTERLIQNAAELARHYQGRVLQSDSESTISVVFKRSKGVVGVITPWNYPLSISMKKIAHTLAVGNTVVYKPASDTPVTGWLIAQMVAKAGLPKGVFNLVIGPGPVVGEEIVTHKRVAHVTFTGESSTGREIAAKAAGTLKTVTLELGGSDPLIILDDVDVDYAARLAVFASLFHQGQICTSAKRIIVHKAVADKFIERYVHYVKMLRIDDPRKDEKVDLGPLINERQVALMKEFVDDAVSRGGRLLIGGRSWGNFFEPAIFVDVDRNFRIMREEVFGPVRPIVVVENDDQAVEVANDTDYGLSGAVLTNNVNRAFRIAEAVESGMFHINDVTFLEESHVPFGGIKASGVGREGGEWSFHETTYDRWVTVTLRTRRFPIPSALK

AlDHPyr1147 [5] = biological target: T1, AlDHPyr1147; assay: spectrofluorimetric titration of apo form; assay type: binding
Source text: spectrofluorimetric titration of apo form on AlDHPyr1147 | spectrofluorimetric titration of the apo form of AlDHPyr1147 with NADP+

purified protein [6] = substrate: CC(C)C=O; assay: purified protein; conditions: 0.3 mM NADP+, 50 mM sodium pyrophosphate pH 8.8, 100 mM NaCl, 60 °C
purified protein [7] = substrate: O=C[C@H](O)CO; assay: purified protein; conditions: 0.3 mM NADP+, 50 mM sodium pyrophosphate pH 8.8, 100 mM NaCl, 60 °C
purified protein [8] = substrate: CCC=O; assay: purified protein; assay type: biochemical, Pyrobaculum ferrireducens; conditions: 0.3 mM NADP+, 50 mM sodium pyrophosphate pH 8.8, 100 mM NaCl, 60 °C
purified protein [9] = substrate: NC(=O)c1ccc[n+]([C@@H]2O[C@H](COP(=O)(O)OP(=O)(O)OC[C@H]3O[C@@H](n4cnc5c(N)ncnc54)[C@H](OP(=O)(O)O)[C@@H]3O)[C@@H](O)[C@H]2O)c1; assay: purified protein; assay type: biochemical, Pyrobaculum ferrireducens; conditions: 60 °C, isobutyraldehyde oxidation, standard assay, 50 mM sodium pyrophosphate pH 8.8, 100 mM NaCl, varied: cofactor

Molecule: NADP-dependent aldehyde dehydrogenase AlDHPyr1147 from archaeon Pyrobaculum sp.1860 (enzyme)
- stoichiometry N [1]: 4
- stoichiometry N [2]: 4
- stoichiometry N [3]: 4

B1: AlDHPyr1147 (Pyrobaculum ferrireducens) (protein)
chain: T1 sequence (G7VCG0 1-491)
notes: homotetramer
- Km (purified protein [6]): 0.020 ± 0.003 M
- kcat (purified protein [6]): 4.1 s⁻¹
- kcat/Km (purified protein [6]): 200 M⁻¹ s⁻¹
- Km (purified protein [7]): 0.015 ± 0.006 M
- kcat (purified protein [7]): 1.2 s⁻¹
- kcat/Km (purified protein [7]): 80 M⁻¹ s⁻¹
- Km (purified protein [8]): 0.021 ± 0.0025 M
- kcat (purified protein [8]): 2.9 ± 0.16 s⁻¹
- kcat/Km (purified protein [8]): 140 ± 30 M⁻¹ s⁻¹
- Km (purified protein [9]): 20.9 ± 0.1 µM

Now from value to molecule:

- % decrease in activity at 0.08 mM (AlDHPyr1147 [4]): 20%
Molecule: NC(=O)C1=CN([C@@H]2O[C@H](COP(=O)(O)OP(=O)(O)OC[C@H]3O[C@@H](n4cnc5c(N)ncnc54)[C@H](OP(=O)(O)O)[C@@H]3O)[C@@H](O)[C@H]2O)C=CC1 [NADPH]

- Kd (AlDHPyr1147 [5]): 600 ± 80 nM
Molecule: NC(=O)c1ccc[n+]([C@@H]2O[C@H](COP(=O)(O)OP(=O)(O)OC[C@H]3O[C@@H](n4cnc5c(N)ncnc54)[C@H](OP(=O)(O)O)[C@@H]3O)[C@@H](O)[C@H]2O)c1 [NADP+]
